# Test results: article PMC7010359, “High-resolution crystal structures of Escherichia coli FtsZ bound to GDP and GTP” (Acta Crystallographica. Section F, Structural Biology …, 2020)
# Molecular target: the molecule itself
# Experiment: crystal structure; hanging-drop vapor diffusion, 298 K, protein at 37 mg/ml with 1 mM GDP (1.35 Å) or 30 mg/ml with 1 mM GTP (1.40 Å); space group P2(1), one molecule in the asymmetric unit; filament generated by crystal packing
protein,measurement,value
"E. coli FtsZ(L178E), truncated to the globular domain (residues 10-316) (domain or fragment, E. coli K-12, UniProt P0A9A6 10-316, looked up, FtsZ, E. coli K-12, globular domain, residues 10-316, with the mutation L178E; expressed from pET-11; Crystallized with 1 mM GDP (PDB 6umk) or 1 mM GTP (PDB 6unx); No tag is mentioned; One molecule in the asymmetric unit; the protofilament arises from crystal packing; also called EcFtsZ(L178E); source: E. coli BL21(DE3), purified (ammonium sulfate precipitation, Resource Q anion exchange)) DAVIKVIGVGGGGGNAVEHMVRERIEGVEFFAVNTDAQALRKTAVGQTIQIGSGITKGLGAGANPEVGRNAADEDRDALRAALEGADMVFIAAGMGGGTGTGAAPVVAEVAKDLGILTVAVVTKPFNFEGKKRMAFAEQGITELSKHVDSLITIPNDKLLKVLGRGISELDAFGAANDVLKGAVQGIAELITRPGLMNVDFADVRTVMSEMGYAMMGSGVASGEDRAEEAAEMAISSPLLEDIDLSGARGVLVNITAGFDLRLDEFETVGNTIRAFASDNATVVIGTSLDPDMNDELRVTVVATGIG",binding result,binds
